What was measured:
BktBbr [1] = target: T1, BktBbr (Burkholderia sp. RF2-non_BP3, UniProt Z9IDK7UI24); assay: X-ray crystal structure, soaked, […] Å; assay type: binding; conditions: 20 mM ligand soak 3 h; active site and CoA tunnel; paper calls CoA esters covalent
T1 construct: synthetic codon-optimised gene in pET-28a(+)-TEV (NdeI/XhoI), E. coli BL21(DE3), Ni-NTA; tetramer

BktBbr [2] = target: T1, BktBbr; assay: X-ray crystal structure, soaked, […] Å; assay type: binding; conditions: 20 mM ligand soak 3 h; active site and CoA tunnel; paper calls CoA esters covalent; remark: listed apart in the source
BktBbb = tested on: T2, BktBbb; assay: coupled alpha-KGDH assay, NADH fluorescence; assay type: biochemical, Burkholderia sp. Bp8998; conditions: acetyl-CoA as only substrate, 12.5-400 uM; 50 mM sodium phosphate, 3 mM EDTA, 1 mM DTT; 22 °C; 3 uM enzyme
T2 construct: gene bktB; synthetic codon-optimised gene in pET-28a(+)-TEV, E. coli BL21(DE3), Ni-NTA
Text: coupled alpha-KGDH assay, NADH fluorescence on BktBbb | Michaelis-Menten plot of all BktBs and 2-PS with only acetyl-CoA or malonyl-CoA

BktBbr [3] = target: T1, BktBbr; assay: X-ray crystal structure, soaked, […] Å; assay type: binding; conditions: 20 mM ligand soak 3 h; CoA tunnel, water-mediated contacts; paper calls CoA esters covalent
BktBbr [4] = target: T3, BktBbr (Burkholderia sp. RF2-non_BP3, UniProt Z9IDK7UI24, G255A); assay: coupled alpha-KGDH assay, TAL formation; assay type: biochemical; conditions: acetoacetyl-CoA varied to 200 uM, acetyl-CoA fixed 200 uM; 22 °C
T3 construct: synthetic codon-optimised gene in pET-28a(+)-TEV (NdeI/XhoI), E. coli BL21(DE3), Ni-NTA; tetramer

BktBbr [5] = target: T4, BktBbr (Burkholderia sp. RF2-non_BP3, UniProt Z9IDK7UI24, S254A); assay: coupled alpha-KGDH assay, TAL formation; assay type: biochemical; conditions: acetoacetyl-CoA varied to 200 uM, acetyl-CoA fixed 200 uM; 22 °C
T4 construct: synthetic codon-optimised gene in pET-28a(+)-TEV (NdeI/XhoI), E. coli BL21(DE3), Ni-NTA; tetramer

[6] = tested on: CC(=O)SCCNC(=O)CCNC(=O)[C@H](O)C(C)(C)COP(=O)(O)OP(=O)(O)OC[C@H]1O[C@@H](n2cnc3c(N)ncnc32)[C@H](O)[C@@H]1OP(=O)(O)O; assay: purified protein; conditions: acetyl-CoA as only substrate, 12.5-400 uM, 50 mM sodium phosphate, 3 mM EDTA, 1 mM DTT, 22 °C, 3 uM enzyme
[7] = substrate: CC(=O)SCCNC(=O)CCNC(=O)[C@H](O)C(C)(C)COP(=O)(O)OP(=O)(O)OC[C@H]1O[C@@H](n2cnc3c(N)ncnc32)[C@H](O)[C@@H]1OP(=O)(O)O; assay: coupled alpha-KGDH assay, NADH fluorescence; assay type: biochemical, Cupriavidus necator; conditions: acetyl-CoA as only substrate, 12.5-400 uM, 50 mM sodium phosphate, 3 mM EDTA, 1 mM DTT, 22 °C, 3 uM enzyme
Text: coupled alpha-KGDH assay, NADH fluorescence on BktBcn | BktBbr and BktBba have slightly higher kcat/KM than BktBcn and BktBcl

[8] = substrate: CC(C)(COP(=O)(O)OP(=O)(O)OC[C@H]1O[C@@H](n2cnc3c(N)ncnc32)[C@H](O)[C@@H]1OP(=O)(O)O)[C@@H](O)C(=O)NCCC(=O)NCCSC(=O)CC(=O)O; assay: coupled alpha-KGDH assay, NADH fluorescence; assay type: biochemical, Gerbera hybrid cultivar; conditions: malonyl-CoA as only substrate, 12.5-400 uM, 22 °C
Text: coupled alpha-KGDH assay, NADH fluorescence on 2-PS | Michaelis-Menten plot of all BktBs and 2-PS with only acetyl-CoA or malonyl-CoA

With `CCCC(=O)SCCNC(=O)CCNC(=O)[C@H](O)C(C)(C)COP(=O)(O)OP(=O)(O)OC[C@H]1O[C@@H](n2cnc3c(N)ncnc32)[C@H](O)[C@@H]1OP(=O)(O)O` [butyryl-CoA] the “X-ray crystal structure, soaked, 2.1 Å” value (BktBbr [1]) was “Binding of butyryl-CoA in the active site (PDB ID: 9BWL)”.

With `CC(=O)SCCNC(=O)CCNC(=O)[C@H](O)C(C)(C)COP(=O)(O)OP(=O)(O)OC[C@H]1O[C@@H](n2cnc3c(N)ncnc32)[C@H](O)[C@@H]1OP(=O)(O)O` [acetyl-CoA] the “X-ray crystal structure, soaked, 2.2 Å” value (BktBbr [2]) was “bound with acetyl-CoA, acetoacetyl-CoA, and butyryl-CoA (PDB IDs: 9BWO, 9BWP, 9BWL)” and the Km (BktBbb) was 43.3 ± 16.6 µM.

For `CC(=O)CC(=O)SCCNC(=O)CCNC(=O)[C@H](O)C(C)(C)COP(=O)(O)OP(=O)(O)OC[C@H]1O[C@@H](n2cnc3c(N)ncnc32)[C@H](O)[C@@H]1OP(=O)(O)O` [acetoacetyl-CoA], the “X-ray crystal structure, soaked, 2.4 Å” value (BktBbr [3]) was “Interaction of acetoacetyl-CoA with BktBbr through water molecules (PDB ID: 9BWP)”, the “coupled alpha-KGDH assay, TAL formation” value (BktBbr [4]) was “while G255A performed comparably to the wild-type” and the “coupled alpha-KGDH assay, TAL formation” value (BktBbr [5]) was “purified mutants of S254A and G251A exhibited overall better enzyme activity for TAL formation”.

In the case of BktBbr (Burkholderia sp. RF2-non_BP3), the Km [6] is reported as 23.99 ± 13.47 µM, the kcat [6] is reported as 1.203 ± 0.115 s⁻¹ and the kcat/Km [6] is reported as 50200 ± 21000 M⁻¹ s⁻¹.

B1: BktBcn (Cupriavidus necator H16) (protein)
chain: MTREVVVVSGVRTAIGTFGGSLKDVAPAELGALVVREALARAQVSGDDVGHVVFGNVIQTEPRDMYLGRVAAVNGGVTINAPALTVNRLCGSGLQAIVSAAQTILLGDTDVAIGGGAESMSRAPYLAPAARWGARMGDAGLVDMMLGALHDPFHRIHMGVTAENVAKEYDISRAQQDEAALESHRRASAAIKAGYFKDQIVPVVSKGRKGDVTFDTDEHVRHDATIDDMTKLRPVFVKENGTVTAGNASGLNDAAAAVVMMERAEAERRGLKPLARLVSYGHAGVDPKAMGIGPVPATKIALERAGLQVSDLDVIEANEAFAAQACAVTKALGLDPAKVNPNGSGISLGHPIGATGALITVKALHELNRVQGRYALVTMCIGGGQGIAAIFERI
notes: synthetic codon-optimised gene in pET-28a(+)-TEV, E. coli BL21(DE3), Ni-NTA; tetramer
Molecule B1 has a Km [7] of 39.25 ± 20.43 µM, a kcat [7] of 1.41 ± 0.261 s⁻¹ and a kcat/Km [7] of 41500 ± 16200 M⁻¹ s⁻¹.

B2: 2-PS (Gerbera hybrid cultivar) (protein)
chain: MGSYSSDDVEVIREAGRAQGLATILAIGTATPPNCVAQADYADYYFRVTKSEHMVDLKEKFKRICEKTAIKKRYLALTEDYLQENPTMCEFMAPSLNARQDLVVTGVPMLGKEAAVKAIDEWGLPKSKITHLIFCTTAGVDMPGADYQLVKLLGLSPSVKRYMLYQQGCAAGGTVLRLAKDLAENNKGSRVLIVCSEITAILFHGPNENHLDSLVAQALFGDGAAALIVGSGPHLAVERPIFEIVSTDQTILPDTEKAMKLHLREGGLTFQLHRDVPLMVAKNIENAAEKALSPLGITDWNSVFWMVHPGGRAILDQVERKLNLKEDKLRASRHVLSEYGNLISACVLFIIDEVRKRSMAEGKSTTGEGLDCGVLFGFGPGMTVETVVLRSVRVTAAVANGN
notes: synthetic codon-optimised gene in pET-28a(+)-TEV, E. coli BL21(DE3), Ni-NTA
Molecule B2 has a Km [8] of 6.93 ± 1.34 µM, a kcat [8] of 0.9298 ± 0.0345 s⁻¹ and a kcat/Km [8] of 137000 ± 24800 M⁻¹ s⁻¹.

Reference: PMC12689856, “A highly active Burkholderia polyketoacyl-CoA thiolase for production of triacetic acid lactone” (Nature Communications, 2025)
